Data from US20210285013A1.

Biological target: human ApoB100 (human) (UniProt P04114)
Assay: cell-based or functional assay

Sequence of UniProt P04114 (P04114 28-4563 limits assumed): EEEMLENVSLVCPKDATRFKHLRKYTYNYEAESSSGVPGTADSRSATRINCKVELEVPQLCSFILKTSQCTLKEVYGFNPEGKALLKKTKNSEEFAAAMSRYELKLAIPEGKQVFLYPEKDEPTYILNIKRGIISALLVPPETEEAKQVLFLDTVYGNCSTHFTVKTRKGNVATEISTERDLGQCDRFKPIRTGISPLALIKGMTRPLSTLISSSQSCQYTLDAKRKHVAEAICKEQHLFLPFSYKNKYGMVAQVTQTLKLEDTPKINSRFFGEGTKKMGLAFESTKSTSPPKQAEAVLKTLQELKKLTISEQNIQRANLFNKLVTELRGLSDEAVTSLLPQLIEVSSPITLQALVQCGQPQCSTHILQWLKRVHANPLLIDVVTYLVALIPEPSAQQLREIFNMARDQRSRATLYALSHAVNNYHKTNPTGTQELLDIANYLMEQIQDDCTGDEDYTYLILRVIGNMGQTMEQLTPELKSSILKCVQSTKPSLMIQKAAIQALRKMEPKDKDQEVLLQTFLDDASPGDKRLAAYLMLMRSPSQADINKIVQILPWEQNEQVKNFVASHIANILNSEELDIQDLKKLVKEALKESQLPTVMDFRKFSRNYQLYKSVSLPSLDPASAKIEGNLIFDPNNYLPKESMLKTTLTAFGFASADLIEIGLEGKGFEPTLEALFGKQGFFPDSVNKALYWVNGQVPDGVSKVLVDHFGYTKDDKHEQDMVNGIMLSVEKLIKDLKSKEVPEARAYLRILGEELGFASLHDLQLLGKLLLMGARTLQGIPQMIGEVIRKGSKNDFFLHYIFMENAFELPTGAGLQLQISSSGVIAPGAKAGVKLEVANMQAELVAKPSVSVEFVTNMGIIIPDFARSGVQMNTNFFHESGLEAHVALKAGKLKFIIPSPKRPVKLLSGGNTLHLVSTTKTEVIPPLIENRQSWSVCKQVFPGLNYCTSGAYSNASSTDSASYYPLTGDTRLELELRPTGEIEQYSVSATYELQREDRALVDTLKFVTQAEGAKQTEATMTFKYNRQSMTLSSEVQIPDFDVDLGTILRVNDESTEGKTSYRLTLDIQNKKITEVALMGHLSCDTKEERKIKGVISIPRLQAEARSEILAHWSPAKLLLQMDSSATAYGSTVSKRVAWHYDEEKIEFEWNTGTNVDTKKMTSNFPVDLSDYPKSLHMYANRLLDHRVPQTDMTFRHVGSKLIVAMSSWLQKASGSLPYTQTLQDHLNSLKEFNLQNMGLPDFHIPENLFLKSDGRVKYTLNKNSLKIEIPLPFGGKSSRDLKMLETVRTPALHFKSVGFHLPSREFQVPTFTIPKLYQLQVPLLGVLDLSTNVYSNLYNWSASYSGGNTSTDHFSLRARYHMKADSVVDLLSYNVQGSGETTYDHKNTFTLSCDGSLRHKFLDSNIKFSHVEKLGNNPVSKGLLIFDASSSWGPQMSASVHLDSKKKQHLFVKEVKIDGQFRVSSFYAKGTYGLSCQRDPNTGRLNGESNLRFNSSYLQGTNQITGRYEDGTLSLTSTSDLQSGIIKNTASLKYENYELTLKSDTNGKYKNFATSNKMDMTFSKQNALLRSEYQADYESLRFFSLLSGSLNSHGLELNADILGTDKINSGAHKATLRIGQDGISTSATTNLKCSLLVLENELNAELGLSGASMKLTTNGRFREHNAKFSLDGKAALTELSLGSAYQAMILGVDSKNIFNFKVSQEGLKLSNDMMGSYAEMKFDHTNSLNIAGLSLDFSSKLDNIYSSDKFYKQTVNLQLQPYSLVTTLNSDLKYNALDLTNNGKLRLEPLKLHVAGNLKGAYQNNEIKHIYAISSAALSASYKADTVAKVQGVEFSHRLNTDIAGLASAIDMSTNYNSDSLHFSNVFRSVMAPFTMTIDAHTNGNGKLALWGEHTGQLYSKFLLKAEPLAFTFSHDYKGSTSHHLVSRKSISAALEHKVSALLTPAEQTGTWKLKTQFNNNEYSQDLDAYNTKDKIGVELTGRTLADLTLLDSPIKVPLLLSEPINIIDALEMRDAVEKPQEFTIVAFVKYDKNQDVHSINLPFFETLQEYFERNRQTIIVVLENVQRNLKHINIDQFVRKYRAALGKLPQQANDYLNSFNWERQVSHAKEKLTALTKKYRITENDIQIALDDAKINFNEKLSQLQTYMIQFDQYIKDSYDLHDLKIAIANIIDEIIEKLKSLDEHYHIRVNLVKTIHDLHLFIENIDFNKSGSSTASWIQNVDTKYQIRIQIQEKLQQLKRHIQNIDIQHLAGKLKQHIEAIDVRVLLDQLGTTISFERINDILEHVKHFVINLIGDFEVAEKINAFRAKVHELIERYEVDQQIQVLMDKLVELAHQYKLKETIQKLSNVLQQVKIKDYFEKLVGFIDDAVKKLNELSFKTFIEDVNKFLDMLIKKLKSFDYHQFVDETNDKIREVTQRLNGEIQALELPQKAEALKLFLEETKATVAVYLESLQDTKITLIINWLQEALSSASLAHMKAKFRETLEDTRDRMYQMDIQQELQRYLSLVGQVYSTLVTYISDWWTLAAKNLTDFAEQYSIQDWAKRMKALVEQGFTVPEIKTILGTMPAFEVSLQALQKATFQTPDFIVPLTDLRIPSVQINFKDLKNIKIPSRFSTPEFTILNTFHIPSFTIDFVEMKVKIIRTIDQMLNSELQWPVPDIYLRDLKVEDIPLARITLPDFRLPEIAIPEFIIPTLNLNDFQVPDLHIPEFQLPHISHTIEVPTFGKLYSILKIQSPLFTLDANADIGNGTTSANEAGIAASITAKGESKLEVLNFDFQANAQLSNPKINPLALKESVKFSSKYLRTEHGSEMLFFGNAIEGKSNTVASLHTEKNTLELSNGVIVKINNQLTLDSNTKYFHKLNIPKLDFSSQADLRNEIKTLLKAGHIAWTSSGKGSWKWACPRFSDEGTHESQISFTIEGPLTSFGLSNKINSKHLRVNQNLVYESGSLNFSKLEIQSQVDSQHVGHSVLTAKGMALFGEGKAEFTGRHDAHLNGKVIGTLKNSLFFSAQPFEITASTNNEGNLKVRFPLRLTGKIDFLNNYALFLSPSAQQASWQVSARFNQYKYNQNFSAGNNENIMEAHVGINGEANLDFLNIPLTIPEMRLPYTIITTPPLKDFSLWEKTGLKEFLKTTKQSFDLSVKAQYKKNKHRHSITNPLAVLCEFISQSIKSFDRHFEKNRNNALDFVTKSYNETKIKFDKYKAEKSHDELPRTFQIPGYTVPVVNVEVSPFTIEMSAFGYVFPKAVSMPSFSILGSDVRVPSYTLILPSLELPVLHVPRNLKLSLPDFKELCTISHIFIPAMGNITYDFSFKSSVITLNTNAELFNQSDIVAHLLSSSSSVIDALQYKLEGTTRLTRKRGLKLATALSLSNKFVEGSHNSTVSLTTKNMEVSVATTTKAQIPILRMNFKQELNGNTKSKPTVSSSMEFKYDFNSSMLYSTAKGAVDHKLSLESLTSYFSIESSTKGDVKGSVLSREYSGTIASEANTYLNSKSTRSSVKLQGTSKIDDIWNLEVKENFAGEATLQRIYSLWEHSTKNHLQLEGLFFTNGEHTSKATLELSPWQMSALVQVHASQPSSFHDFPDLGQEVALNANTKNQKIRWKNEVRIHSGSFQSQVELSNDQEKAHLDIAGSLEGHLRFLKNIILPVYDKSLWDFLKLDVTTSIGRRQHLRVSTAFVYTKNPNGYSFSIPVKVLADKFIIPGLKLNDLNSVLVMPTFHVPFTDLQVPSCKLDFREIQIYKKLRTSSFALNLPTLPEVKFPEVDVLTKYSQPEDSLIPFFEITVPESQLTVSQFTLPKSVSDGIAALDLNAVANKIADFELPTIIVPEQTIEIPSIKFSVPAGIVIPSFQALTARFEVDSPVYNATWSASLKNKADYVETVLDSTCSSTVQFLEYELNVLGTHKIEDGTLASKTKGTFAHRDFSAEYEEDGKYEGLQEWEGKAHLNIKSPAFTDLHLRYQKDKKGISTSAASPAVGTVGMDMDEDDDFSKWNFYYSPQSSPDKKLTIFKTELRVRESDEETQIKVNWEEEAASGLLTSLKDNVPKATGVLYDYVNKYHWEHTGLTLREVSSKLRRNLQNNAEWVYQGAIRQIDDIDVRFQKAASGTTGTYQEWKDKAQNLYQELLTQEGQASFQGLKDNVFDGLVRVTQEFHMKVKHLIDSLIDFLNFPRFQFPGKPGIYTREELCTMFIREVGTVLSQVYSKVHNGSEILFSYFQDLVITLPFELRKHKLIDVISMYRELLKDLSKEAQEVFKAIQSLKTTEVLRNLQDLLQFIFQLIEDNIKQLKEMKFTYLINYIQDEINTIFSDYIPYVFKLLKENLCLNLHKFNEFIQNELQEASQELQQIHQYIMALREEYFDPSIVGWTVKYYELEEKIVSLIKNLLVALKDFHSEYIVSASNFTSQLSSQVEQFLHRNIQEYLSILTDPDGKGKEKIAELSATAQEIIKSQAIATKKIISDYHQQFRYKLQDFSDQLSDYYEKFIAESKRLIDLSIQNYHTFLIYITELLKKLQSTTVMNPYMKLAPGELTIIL

- reduction of serum cholesterol in LAHB mice after AAV8.TBG.hLDLR: 30%
Substance: human low density lipoprotein receptor (hLDLR) (from UniProt P01130 22-860)
